B1: chimeric antibody 1A2-7 (antibody, V domains shown)
VH: QVQLQQPGAELVKPGASVKLSCKASGYTFTSYWMHWVKQRPGQGLEWIGEINPSNGRTNYNEKFKSKATLTVDKSSSTAYMQLNSLTSEDSAVYYCARDRYDEGNAMDYWGQGTSVTVSS
VL: DIVMTQTTSSLSASLGDRVTISCRASQDITNYLNWYQQKPDGTVKLLIYYTSRLHSGVPSRFSGSGSGTDYSLTISNLEQEDIATYFCQQGDTLPRTFGGGTKLEIK
B2: chimeric antibody 3G9-1 (antibody, V domains shown)
VH: QVQLQQPGAELVKPGASVKLSCKASGYTFTSYWMHWVKQRPGQGLEWIGEINPSNGRTNYNEKFKSKATLIVDKSSSTAYMQLSSLTSEDSAVYYCARGIYYGYDYAMDYWGQGTSVTVSS
VL: DIQMTHTTSSLSASLGDRVTISCRASQDISNYLNWYQQKPDGTVKLLIYYTSRLHSGVPSRFSGSGSGTDYSLTISNLEQEDIATYFCQQGNTLPPTFGGGTKLEIK
B3: chimeric antibody 3A2-18 (antibody, V domains shown)
VH: EVQLQQPGAELVKPGASVKLSCKASGYTFTSYWMHWVKQRPGQGLEWIGEINPSNGRTNYNEKFKSKATLTVDKSSSTAYVQLNSLTSEDSAVYYCARDRYDEGNAMDYWGQGTSVTVSS
VL: DIVMTQTTSSLSASLGDRVTISCRASQDITNYLNWYQQKPDGTVKLLIYYTSRLHSGVPSRFSGSGSGTDYSLTISNLEQEDIATYFCQQGDTLPRTFGGGTKLEIK
B4: chimeric antibody 5E11-2 (antibody, V domains shown)
VH: EVKLEESGGGLVQPGGSMKLSCAASGFTFSDAWMDWVRQSPEKGLEWVAEIRSKPNNHATYYAESVKGRFTISRDDSKSSVYLQMNSLRAEDTGIYYCTRTTDYSMDYWGQGTSVTVSS
VL: DIQMTQSPASLAVSLGQRATISCRASQSVSASSYSYMHWYQQKPGQPPKLLIKYASNLQSGVPARFSGSGSGTDFTLNIHPVEEEDSATYYCQHSWEIPRTFGGGTKLEIK

Molecular target: T1, Human LILRB4/CD85k/ILT3 Protein (ECD, His Tag), Sino Biological (human, UniProt Q8NHJ6 22-259)
T1 construct: extracellular domain; Bought protein; it is not tied to this bought protein; also called LILRB4 protein; not shown: His tag
Assay: ELISA, coated LILRB4 ECD-His

Binding result, binds:
B1, B2, B3, B4

Reference: patent publication EP4553085A1 (Hangzhou Sumgen Biotech Co., Ltd., dated 2025)
